Test results from publication PMC3526519, “Rationally re-designed mutation of NAD-independent L-lactate dehydrogenase: high optical resolution of racemic mandelic acid by the engineered Escherichia coli” (Microbial Cell Factories, 2012).

Legend:
C[C@H](O)C(=O)O = tested on: T1, C[C@H](O)C(=O)O; experiment: purified protein; format: biochemical, Stutzerimonas stutzeri; conditions: 0.0625 mM DCIP as electron acceptor, 50 mM Tris-HCl pH 7.5, 30 °C
T1 construct: membrane flavoprotein; wild-type prepared as in earlier report

O=C(O)[C@@H](O)c1ccccc1 = tested on: T2, O=C(O)[C@@H](O)c1ccccc1; experiment: purified protein; format: biochemical, Stutzerimonas stutzeri; conditions: 0.0625 mM DCIP as electron acceptor, 50 mM Tris-HCl pH 7.5, 30 °C
T2 construct: membrane flavoprotein; wild-type prepared as in earlier report

[1] = target: T3, L-iLDH (NAD-independent L-lactate dehydrogenase) (Stutzerimonas stutzeri, UniProt I1SLB1, V108A); experiment: DCIP reduction at […] nm, double-reciprocal plots; format: biochemical; conditions: competitive versus L-mandelate; 0.0625 mM DCIP, 50 mM Tris-HCl pH 7.5, 30 °C
T3 construct: gene lldD; membrane flavoprotein; wild-type prepared as in earlier report
T3 sequence (I1SLB1 1-391 V108A): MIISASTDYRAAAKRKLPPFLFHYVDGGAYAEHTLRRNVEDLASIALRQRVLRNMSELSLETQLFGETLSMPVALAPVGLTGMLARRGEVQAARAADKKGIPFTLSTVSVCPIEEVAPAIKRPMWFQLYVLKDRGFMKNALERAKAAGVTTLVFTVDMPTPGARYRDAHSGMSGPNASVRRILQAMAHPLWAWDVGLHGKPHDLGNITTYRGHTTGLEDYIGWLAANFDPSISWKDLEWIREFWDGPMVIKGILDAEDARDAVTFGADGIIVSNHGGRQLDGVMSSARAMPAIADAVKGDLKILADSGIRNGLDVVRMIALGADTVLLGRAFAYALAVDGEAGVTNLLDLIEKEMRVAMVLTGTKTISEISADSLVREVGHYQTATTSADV

purified protein [2] = substrate: C[C@H](O)C(=O)O; experiment: purified protein; format: biochemical, Stutzerimonas stutzeri; conditions: 0.0625 mM DCIP as electron acceptor, 50 mM Tris-HCl pH 7.5, 30 °C
purified protein [3] = substrate: O=C(O)[C@@H](O)c1ccccc1; experiment: purified protein; format: biochemical, Stutzerimonas stutzeri; conditions: 0.0625 mM DCIP as electron acceptor, 50 mM Tris-HCl pH 7.5, 30 °C

**Q.** “L-iLDH (NAD-independent L-lactate dehydrogenase) (Stutzerimonas stutzeri; V108A)” was tested. Which Km (C[C@H](O)C(=O)O) did it give?
**A.** 800 ± 100 µM

**Q.** And the kcat (C[C@H](O)C(=O)O)?
**A.** 185 ± 36 s⁻¹

**Q.** What about the kcat/Km (C[C@H](O)C(=O)O) of the same molecule?
**A.** 231000 M⁻¹ s⁻¹

**Q.** What about the Km (O=C(O)[C@@H](O)c1ccccc1) of the same molecule?
**A.** 1600 ± 100 µM

**Q.** What about the kcat (O=C(O)[C@@H](O)c1ccccc1) of the same molecule?
**A.** 97 ± 13 s⁻¹

**Q.** And the kcat/Km (O=C(O)[C@@H](O)c1ccccc1)?
**A.** 61000 M⁻¹ s⁻¹

**Q.** `O=C(O)[C@H](O)c1ccccc1` [D-mandelate] was tested. Which Ki [1] did it give?
**A.** 5.5 ± 0.5 mM

B1: L-iLDH (NAD-independent L-lactate dehydrogenase) (Stutzerimonas stutzeri) (protein)
chain: MIISASTDYRAAAKRKLPPFLFHYVDGGAYAEHTLRRNVEDLASIALRQRVLRNMSELSLETQLFGETLSMPVALAPVGLTGMLARRGEVQAARAADKKGIPFTLSTVSVCPIEEVAPAIKRPMWFQLYVLKDRGFMKNALERAKAAGVTTLVFTVDMPTPGARYRDAHSGMSGPNASVRRILQAMAHPLWAWDVGLHGKPHDLGNITTYRGHTTGLEDYIGWLAANFDPSISWKDLEWIREFWDGPMVIKGILDAEDARDAVTFGADGIIVSNHGGRQLDGVMSSARAMPAIADAVKGDLKILADSGIRNGLDVVRMIALGADTVLLGRAFAYALAVDGEAGVTNLLDLIEKEMRVAMVLTGTKTISEISADSLVREVGHYQTATTSADV
notes: membrane flavoprotein; wild-type prepared as in earlier report
**Q.** How did the Km (purified protein [2]) turn out when B1 was run?
**A.** 180 ± 10 µM

**Q.** And the kcat (purified protein [2])?
**A.** 445 ± 44 s⁻¹

**Q.** And the kcat/Km (purified protein [2])?
**A.** 2.47e+06 M⁻¹ s⁻¹

**Q.** What about the Km (purified protein [3]) of the same molecule?
**A.** 6800 ± 1000 µM

**Q.** And the kcat (purified protein [3])?
**A.** 8.3 ± 1.3 s⁻¹

**Q.** And the kcat/Km (purified protein [3])?
**A.** 1200 M⁻¹ s⁻¹
